Laboratory results reported in US6835382B2, “Ii peptide therapeutics to enhance antigen presentation” (University of Massachusetts, priority 1996, dated 2004).
Non-standard residues stand in square brackets, D forms with d. hArg = N=C(N)NCCCC[C@H](N)C(=O)O; Cit = NC(=O)NCCC[C@H](N)C(=O)O; Orn = NCCC[C@H](N)C(=O)O

Target: T1, murine E^d MHC class II allele (Mus musculus, UniProt P01904+P01915)
T1 sequence (P01904 26-255): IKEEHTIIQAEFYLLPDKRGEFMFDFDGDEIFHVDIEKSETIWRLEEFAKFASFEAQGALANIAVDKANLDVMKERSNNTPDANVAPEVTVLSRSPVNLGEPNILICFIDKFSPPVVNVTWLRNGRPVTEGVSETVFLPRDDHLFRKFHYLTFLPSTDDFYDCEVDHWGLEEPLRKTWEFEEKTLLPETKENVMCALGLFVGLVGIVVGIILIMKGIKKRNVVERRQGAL
T1 sequence (P01915 27-264 limits assumed): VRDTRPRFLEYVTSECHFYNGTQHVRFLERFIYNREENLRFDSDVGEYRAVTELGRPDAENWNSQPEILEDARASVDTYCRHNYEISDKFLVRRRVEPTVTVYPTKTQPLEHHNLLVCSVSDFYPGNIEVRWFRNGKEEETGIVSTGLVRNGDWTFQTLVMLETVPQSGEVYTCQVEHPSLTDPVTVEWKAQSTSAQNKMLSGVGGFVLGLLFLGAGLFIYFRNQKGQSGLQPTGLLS
Assay: antigenic peptide prepulse assay, E^d allele (fixed APC prepulsed with HEL106-116)
Assay type: cell-based
Set-up: The A20 and CH27 B cell lymphoma lines express H-2^d and H-2^k alleles, respectively; endogenous in cells; host or cells: A20 B cell lymphoma (mitomycin C-treated or paraformaldehyde-fixed)
Settings: for Activity in antigenic peptide prepulse assay, E^d (baseline = 1): Table 23, as printed: antigenic peptide prepulse 64 μM, AE peptide 1:4 μM; for Activity in antigenic peptide prepulse assay, E^d (baseline = 1.00) / Activity in antigenic peptide prepulse assay, E^d (baseline = 1.0) / Activity in antigenic peptide prepulse assay, E^d (baseline without AE peptide = 1.00): AE peptide 64 μM; for T cell response relative to baseline without AE peptide (None = 1.0), E^d: Table 27, antigenic peptide prepulse 24 μM, AE101 series peptide 64 μM, HT-2 supernatant dilution 1:8; for Activity in antigenic peptide prepulse assay, E^d (baseline without AE peptide = 1.00): Table 19, prepulse 12 μM HEL106-116
Experimental: In a second type of assay, the “peptide prepulse assay”, the antigenic peptide is incubated with paraformaldehyde-fixed APC for 6 h. The APC are washed and incubated for 24 h with the AE101 series homolog and the T cell hybridoma specific for the antigenic peptide. After that incubation, an aliquot of the culture supernatant is transferred to a second culture to measure the relative degree of T hybridoma stimulation, as reflected in the effect of released interleukins on the growth of an interleukin-dependent, indicator cell line, as described above.
The two above described assays measure different aspects of the molecular mechanism of the AE101 series of peptides. In the “simultaneous assay”, AE101 series peptides are thought to induce the release of endogenously bound peptides and to permit the binding of the second, specific antigenic peptide which is relatively abundant in the culture fluid. The AE101 series peptides enhance antigenic peptide-specific T cell responses in simultaneous assays. In the “peptide prepulse” assay, the specific antigenic peptide becomes bound to MHC class II molecules on the surface of the fixed APC during the 6 h prepulse incubation. The effect of the AE101 series homologs is then thought to release that antigenic peptide, resulting in an apparent suppression of the immune response.
The AE101 series peptides are thought to contact the MHC class II molecules at a discrete site outside the antigenic peptide-binding groove. AE101 peptide binding to this “Ii-KEY” site is thought to induce a conformational change in the MHC class II molecules accelerating the dissociation of previously bound antigenic peptide. […] The AE101 series peptides thus inhibit antigenic peptide-specific T cell responses in the “peptide prepulse” assays.
Antigenic peptide-specific T cell activation was measured by the following procedure. Mitomycin C-treated A20 cells (A^dE^d) or CH27 cells APC (A^kE^k) were generated by incubating 5×10^6 cells/mL for 20 min at 37° C. with 0.025 mg/mL of mitomycin C (Sigma) in Dulbecco's Modified Eaglel's Medium (DMEM)/10 mM N-2(hydroxyethylpiperazine-N″[2-ethanesulfonic acid] (HEPES), followed by two washes with four volumes of DMEM-5% fetal calf serum (FCS), 10 mM HEPES. Fixed APC were generated by treating 1×10^6 cells/mL for 5 min with 0.5% paraformaldehyde in PBS (pH 7.2), followed by two washes with four volumes of DMEM-10% FCS, 10 mM HEPES. T cell hybridomas were irradiated 2200 rads before each assay.
The “peptide prepulse assay” was carried out under essentially the same conditions as described for the “simultaneous assay” with the following modifications. Fixed APC were first incubated for 6 h at 1×10^6 cells/mL in complete DMEM-5% FCS in 24-well microculture plates (1 mL/well) with antigenic peptide, followed by four washes with 10 volumes of DMEM-5% FCS. The cells were then exposed to varying concentrations of AE101 series peptide (64 μM, 16 μM, 4 μM, and 1 μM) for 24 h in the presence of the T cell hybridoma specific to the antigenic peptide. Interleukin release from these cultures was measured by proliferation of HT-2 cells to interleukins in supernatants transferred from the primary culture. Generally, a single dose of 64 μM of each AE101 series peptide was used. The baseline T cell response was measured by culturing T hybridoma cells with the antigenic peptide-prepulsed APC in the absence of AE101 series peptides.
[…] […] Paraformaldehyde-treated APC (fixed APC) expressing MHC class II molecules were incubated with antigenic peptide for 6 h (HEL106-116 for E^d and PGCC81-104 for E^k). After this incubation, the prepulsed APC were washed and cultured with T hybridoma cells and AE101 series peptides. […] The AE101 series peptide concentrations were 64 μM for E^d and 16 μM for E^k. The dilutions of supernatant taken into the HT-2 cell assay were 1:4 for Ed and 1:2 for E^k.

[1] = Table 24, prepulse 24 μM antigenic peptide, supernatant 1:4
[2] = Table 25, prepulse 24 μM antigenic peptide, supernatant 1:4
[3] = Table 22, prepulse 6 μM antigenic peptide, supernatant 1:8
[4] = Table 26, prepulse 24 μM antigenic peptide, supernatant 1:2
[5] = Table 28, prepulse 24 μM antigenic peptide, supernatant 1:4
[6] = Table 20, prepulse 3 μM antigenic peptide, supernatant 1:2

Row | Substance | Activity in antigenic peptide prepulse assay, E^d (baseline = 1.00) [1] | Activity in antigenic peptide prepulse assay, E^d (baseline = 1.00) [2] | also measured
1 | Ac- (mL) RMKLPK-NH2 [AE174] | 0.60 |  | Activity in antigenic peptide prepulse assay, E^d (baseline = 1) (supernatant 1:8): 0.6
2 | Ac-ARMKLPKSAK-NH2 [AE120] |  | 0.63 | 
3 | Ac-ARMKNPK-NH2 [AE345] |  | 0.61 | 
4 | Ac-ARNKLPK-NH2 [AE344] |  | 0.46 | 
5 | Ac-ARNKNPF-NH2 [AE347] |  | 0.64 | 
6 | Ac-ARNKNPK-NH2 [AE346] |  | 0.65 | 
7 | Ac-L r MKLPK-NH2 [AE161] |  |  | Activity in antigenic peptide prepulse assay, E^d (baseline = 1.00) [3]: 0.30
8 | Ac-LR (mL) KLPK-NH2 [AE302] | 0.82 |  | 
9 | Ac-LR (mL) KYPK-NH2 [AE303] | 0.78 |  | 
10 | Ac-LR (mL) KYPk-NH2 [AE305] | 0.72 |  | 
11 | Ac-LR (mL) KyPK-NH2 [AE304] | 0.78 |  | 
12 | Ac-LR (mL) KyPk-NH2 [AE306] | 0.68 |  | 
13 | Ac-LR HArg KLPK-NH2 [AE197] |  |  | Activity in antigenic peptide prepulse assay, E^d (baseline = 1.0) [4]: 0.32
14 | Ac-LR L KLPK-NH2 (Ac-LRLKLPK-NH2; not fully specified; printed as Ac-LR L KLPK-NH2) [AE206] | 0.52 | 0.18 | Activity in antigenic peptide prepulse assay, E^d (baseline = 1.0) [4]: 0.38
15 | Ac-LR N KLPK-NH2 (Ac-LRNKLPK-NH2) [AE202] |  | 0.30 | 
16 | Ac-LR m KLPK-NH2 [AE162] |  |  | Activity in antigenic peptide prepulse assay, E^d (baseline = 1.00) [3]: 0.28
17 | Ac-LRLK HArg PK-NH2 [AE341] |  | 0.12 | 
18 | Ac-LRLKWPK-NH2 [AE309] | 0.44 | 0.48 | Activity in antigenic peptide prepulse assay, E^d (baseline = 1.0) [4]: 0.25
19 | Ac-LRLKYPK-NH2 [AE301] | 0.48 | 0.66 | Activity in antigenic peptide prepulse assay, E^d (baseline = 1.0) [4]: 0.34
20 | Ac-LRLKYPk-NH2 [AE307] | 0.59 |  | 
21 | Ac-LRLKyPK-NH2 [AE308] | 0.93 |  | 
22 | Ac-LRM M LPK-NH2 (Ac-LRMMLPK-NH2) [AE220] |  |  | Activity in antigenic peptide prepulse assay, E^d (baseline = 1.0) [4]: 0.73
23 | Ac-LRM k LPK-NH2 [AE163] |  |  | Activity in antigenic peptide prepulse assay, E^d (baseline = 1.00) [3]: 0.39
24 | Ac-LRMK (mL) PK-NH2 [AE175] | 0.70 |  | Activity in antigenic peptide prepulse assay, E^d (baseline = 1) (supernatant 1:8): 0.7
25 | Ac-LRMK HArg PK-NH2 (Ac-LRMK[hArg]PK-NH2; SMILES CSCC[C@H](NC(=O)[C@H](CCCNC(=N)N)NC(=O)[C@H](CC(C)C)NC(C)=O)C(=O)N[C@@H](CCCCN)C(=O)N[C@@H](CCCCNC(=N)N)C(=O)N1CCC[C@H]1C(=O)N[C@@H](CCCCN)C(N)=O) [AE227] |  | 0.28 | 

Row | Substance | Activity in antigenic peptide prepulse assay, E^d (baseline = 1.00) [1] | Activity in antigenic peptide prepulse assay, E^d (baseline = 1.00) [2] | also measured
26 | Ac-LRMK N PK-NH2 (Ac-LRMKNPK-NH2) [AE232] |  | 0.44 | 
27 | Ac-LRMK Y PK-NH2 (Ac-LRMKYPK-NH2; not fully specified; printed as Ac-LRMK Y PK-NH2) [AE235] | 0.30 | 0.25 | Activity in antigenic peptide prepulse assay, E^d (baseline = 1.0) [4]: 0.23; T cell response relative to baseline without AE peptide (None = 1.0), E^d: 0.40; Activity in antigenic peptide prepulse assay, E^d (baseline = 1.0) [5]: 0.30
28 | Ac-LRMK l PK-NH2 [AE164] | 0.59 |  | Activity in antigenic peptide prepulse assay, E^d (baseline = 1.00) [3]: 0.37
29 | Ac-LRMKL p K-NH2 [AE165] |  |  | Activity in antigenic peptide prepulse assay, E^d (baseline = 1.00) [3]: 0.25
30 | Ac-LRMKLP F-NH2 (Ac-LRMKLPF-NH2) [AE248] |  | 0.63 | 
31 | Ac-LRMKLP N-NH2 (Ac-LRMKLPN-NH2) [AE246] |  |  | Activity in antigenic peptide prepulse assay, E^d (baseline = 1.0) [4]: 0.69
32 | Ac-LRMKLP k-NH2 [AE166] | 0.65 |  | Activity in antigenic peptide prepulse assay, E^d (baseline = 1.00) [3]: 0.11
33 | Ac-LRMKLPK-NH2 [AE114] | 0.41 | 0.31 | Activity in antigenic peptide prepulse assay, E^d (baseline = 1.00) [3]: 0.02; Activity in antigenic peptide prepulse assay, E^d (baseline = 1) (supernatant 1:8): 0.41; Activity in antigenic peptide prepulse assay, E^d (baseline = 1.0) [4]: 0.28; T cell response relative to baseline without AE peptide (None = 1.0), E^d: 0.32; Activity in antigenic peptide prepulse assay, E^d (baseline = 1.0) [5]: 0.41
34 | Ac-LRMKLPKPPK-NH2 [AE168] |  |  | Activity in antigenic peptide prepulse assay, E^d (baseline without AE peptide = 1.00) (supernatant 1:4): 0.10
35 | Ac-LRMKLPKPPP-NH2 [AE167] |  |  | Activity in antigenic peptide prepulse assay, E^d (baseline without AE peptide = 1.00) (supernatant 1:4): 0.23
36 | Ac-LRMKLP[Cit]-NH2 [AE241] |  |  | Activity in antigenic peptide prepulse assay, E^d (baseline = 1.0) [4]: 0.70
37 | Ac-LRNKNPF-NH2 [AE348] |  | 0.39 | 
38 | Ac-LRNKNPK-NH2 [AE349] |  | 0.69 | 
39 | Ac-LR[Orn]KLPK-NH2 [AE195] |  | 0.41 | 
40 | Ac-L[Cit]MKNPK-NH2 [AE342] |  | 0.67 | 
41 | Ac-L[Cit]NKLPK-NH2 [AE343] |  | 0.55 | 
42 | Ac-Y D MKLPKSAK-NH2 [AE135] |  |  | Activity in antigenic peptide prepulse assay, E^d (baseline = 1.00) [6]: 0.70
43 | Ac-Y E MKLPKSAK-NH2 [AE136] |  |  | Activity in antigenic peptide prepulse assay, E^d (baseline = 1.00) [6]: 0.54
44 | Ac-Y F MKLPKSAK-NH2 [AE139] |  |  | Activity in antigenic peptide prepulse assay, E^d (baseline = 1.00) [6]: 0.67
45 | Ac-Y H MKLPKSAK-NH2 [AE133] |  |  | Activity in antigenic peptide prepulse assay, E^d (baseline = 1.00) [6]: 0.39
46 | Ac-Y K MKLPKSAK-NH2 [AE134] |  |  | Activity in antigenic peptide prepulse assay, E^d (baseline = 1.00) [6]: 0.60; Activity in antigenic peptide prepulse assay, E^d (baseline = 1.0) [4]: 0.83
47 | Ac-Y L MKLPKSAK-NH2 [AE142] |  |  | Activity in antigenic peptide prepulse assay, E^d (baseline = 1.00) [6]: 0.86
48 | Ac-Y M MKLPKSAK-NH2 [AE141] |  |  | Activity in antigenic peptide prepulse assay, E^d (baseline = 1.00) [6]: 0.41
49 | Ac-Y N MKLPKSAK-NH2 [AE137] |  |  | Activity in antigenic peptide prepulse assay, E^d (baseline = 1.00) [6]: 0.57
